Experimental data reported in US20230304010A1, “COMPOSITIONS AND METHODS FOR TREATING VIRAL INFECTIONS” (priority 2020, published 2023).
Several values for one entry are separate records, joined by “and”; a condition that tells them apart may be missing. Equal values may be shown once. Read-outs that look alike come from different tables or passages of the source.

Key:
[1] = target: SARS-CoV-2 Spike (SARS-CoV-2), P0DTC2; assay: inhibitor screening kit; ACE2:SARS-CoV-2 Spike (Example 4 assay)
[2] = target: SARS-CoV-2 Spike (SARS-CoV-2), P0DTC2; assay: ACE2:SARS-CoV-2 Spike inhibitor screening kit (Example 3)
[3] = target: SARS-CoV-2 Spike (SARS-CoV-2), P0DTC2; assay: SARS-CoV-2 Spike:ACE2 inhibitor screening kit (Example 4)
[4] = target: SARS-CoV-2 Spike (SARS-CoV-2), P0DTC2; assay: inhibitor screening kit; SARS-CoV-2 Spike:ACE2 (Example 3 assay)
[5] = target: SARS-CoV-2 Spike (SARS-CoV-2), P0DTC2; assay: ACE2:SARS-CoV-2 Spike kit, ACE2 on plate, Spike-Fc added; competitor ACE2
[6] = target: SARS-CoV-2 Spike (SARS-CoV-2), P0DTC2; assay: SARS-CoV-2 Spike:ACE2 inhibitor screening kit (Example 4); Table 7 prints 38.6
[7] = target: ACE2, Q9BYF1
ACE2, Q9BYF1, sequence (Q9BYF1 18-740 limits assumed): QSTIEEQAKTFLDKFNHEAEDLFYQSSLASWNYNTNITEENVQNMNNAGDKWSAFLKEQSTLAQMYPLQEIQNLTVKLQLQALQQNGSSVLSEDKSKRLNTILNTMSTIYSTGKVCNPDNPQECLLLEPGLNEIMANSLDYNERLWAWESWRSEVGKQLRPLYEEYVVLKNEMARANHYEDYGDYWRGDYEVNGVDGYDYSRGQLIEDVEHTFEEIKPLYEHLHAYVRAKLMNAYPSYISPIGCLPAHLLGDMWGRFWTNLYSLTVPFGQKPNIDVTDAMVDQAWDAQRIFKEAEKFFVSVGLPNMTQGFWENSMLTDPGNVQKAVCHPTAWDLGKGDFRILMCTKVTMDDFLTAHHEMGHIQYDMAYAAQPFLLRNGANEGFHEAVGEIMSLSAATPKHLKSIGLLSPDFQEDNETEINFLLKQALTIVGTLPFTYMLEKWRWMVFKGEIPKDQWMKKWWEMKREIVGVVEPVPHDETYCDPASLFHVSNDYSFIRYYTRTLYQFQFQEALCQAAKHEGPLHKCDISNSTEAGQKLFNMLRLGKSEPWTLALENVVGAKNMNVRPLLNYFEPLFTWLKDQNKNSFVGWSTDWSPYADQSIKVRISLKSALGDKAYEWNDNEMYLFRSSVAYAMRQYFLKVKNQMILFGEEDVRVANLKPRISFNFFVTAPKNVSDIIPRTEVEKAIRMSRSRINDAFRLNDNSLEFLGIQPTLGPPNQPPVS

[8] = target: ACE2, Q9BYF1; assay: inhibitor screening kit, ADGN-106 nanoparticles (Example 6, section B)
[9] = target: ACE2, Q9BYF1; assay: inhibitor screening kit, ADGN-106 nanoparticles (Example 6, section A)
[10] = target: SARS-CoV-2 Spike (SARS-CoV-2), P0DTC2
[11] = target: SARS-CoV-2 Spike (SARS-CoV-2), P0DTC2; remark: listed apart in the source

**Q.** What does the source list for EQAKTFLDKFNHEAEDLFPKWSAFLKEQSTLAQMYG (modifications not checked) [Seq27 (LNCOV-27)]?
**A.** IC50 [1]: 37.4 nM; IC50 [2]: 50 nM; fold more potent than SBP-1 coupled to ADGN-106 [2]: 6 fold; fold more potent than free SBP-1 [2]: 15 fold; fold more potent than SBP-1 coupled to ADGN-106 [3]: 3.5 fold; fold more potent than free SBP-1 [3]: 7 fold; IC50 [4]: 66.1 nM

**Q.** For KTFLDKFNHEAEDLFPGPKWSAFLKEQSTLAQMYG (modifications not checked) [Seq28 (LNCOV-20)], which IC50 [1] is on record?
**A.** Its IC50 is 38.6 nM.

**Q.** And the IC50 [2]?
**A.** Its IC50 is 50 nM.

**Q.** And the fold more potent than SBP-1 coupled to ADGN-106 [2]?
**A.** Its fold more potent than SBP-1 coupled to ADGN-106 is 6 fold.

**Q.** What about the fold more potent than free SBP-1 [2] of the same binder?
**A.** The fold more potent than free SBP-1 was 15 fold.

**Q.** What about the fold more potent than SBP-1 coupled to ADGN-106 [3] of the same binder?
**A.** Its fold more potent than SBP-1 coupled to ADGN-106 is 3.5 fold.

**Q.** What about the fold more potent than free SBP-1 [3] of the same binder?
**A.** Its fold more potent than free SBP-1 is 7 fold.

**Q.** What about the IC50 [5] of the same binder?
**A.** The IC50 was 38.6 nM.

**Q.** What about the IC50 [4] of the same binder?
**A.** Its IC50 is 58.7 nM.

**Q.** What about the IC50 [6] of the same binder?
**A.** The IC50 was 38.5 nM.

B1: Seq39 (LNCOV-31) (peptide)
peptide: EQAKTFLDKFNHEAEDLFPKWSAFLKEQSTLAQMYGLWRALWRLWRSLWRLLWK
modifications: not checked
**Q.** Which results are given for B1?
**A.** IC50 [1]: 68.4 nM; fold increase of efficiency over the uncoupled peptide (Seq27/Seq28) [2]: 1.4 fold; IC50 [4]: 55.2 nM

B2: Seq40 (LNCOV-32) (peptide)
peptide: KTFLDKFNHEAEDLFPKWSAFLKEQSTLAQMYGLWRALWRLWRSLWRLLWK
modifications: not checked
**Q.** Which IC50 [1] does the source give for B2 here?
**A.** Its IC50 is 85.4 nM.

**Q.** And the fold increase of efficiency over the uncoupled peptide (Seq27/Seq28) [2]?
**A.** Its fold increase of efficiency over the uncoupled peptide (Seq27/Seq28) is 1.4 fold.

**Q.** What about the IC50 [4] of the same binder?
**A.** Its IC50 is 45.1 nM.

**Q.** For NMTQGFWENPGGPTAWDLGK (modifications not checked) [Seq31 (LNCOV-37)], which IC50 [1] is on record?
**A.** Its IC50 is over 10000 nM.

**Q.** And the IC50 [2]?
**A.** Its IC50 is 25000 nM.

**Q.** What about the IC50 [3] of the same binder?
**A.** Its IC50 is 25000 nM.

**Q.** And the IC50 [4]?
**A.** The IC50 was over 10000 nM.

**Q.** Which IC50 [1] does the source give for EQAKTFLDKFNHEAEDLFLWRALWRLWRSLWRLLWK (modifications not checked) [Seq33 (LNCOV-18)] here?
**A.** Its IC50 is 18.4 nM.

**Q.** What about the fold more potent than SBP-1 coupled to ADGN-106 [3] of the same binder?
**A.** Its fold more potent than SBP-1 coupled to ADGN-106 is 8 fold.

**Q.** And the fold more potent than free SBP-1 [3]?
**A.** The fold more potent than free SBP-1 was 14 fold.

**Q.** And the IC50 [5]?
**A.** Its IC50 is 18.4 nM.

**Q.** What about the IC50 [4] of the same binder?
**A.** Its IC50 is 178 nM.

B3: Seq17 (LNCOV-15)/ADGN-106 nanoparticle complex (peptide)
peptide 1: NGVEGFNKLWRALWRLWRSLWRLLWK
peptide 2: LWRALWRLWRSLWRLLWK
modifications: not checked
**Q.** What does the source list for B3?
**A.** IC50 [7]: 3.4 nM and 2.7 nM; fold more potent than SBP-1-ADGN-106/ADGN-106 complex [8]: 4 fold; fold more potent than SBP-1 peptide/ADGN-106 complex [8]: 35 fold; fold more potent than SBP-1-ADGN-106/ADGN-106 complex [9]: 6 fold; fold more potent than SBP-1 peptide/ADGN-106 complex [9]: 40 fold

B4: Seq20 (LNCOV-24)/ADGN-106 nanoparticle complex (peptide)
peptide 1: SYGFQPTNGVLWRALWRLWRSLWRLLWK
peptide 2: LWRALWRLWRSLWRLLWK
modifications: not checked
**Q.** Which results are given for B4?
**A.** IC50 [7]: 3.7 nM and 8.7 nM; fold more potent than SBP-1-ADGN-106/ADGN-106 complex [9]: 6 fold; fold more potent than SBP-1 peptide/ADGN-106 complex [9]: 40 fold

B5: Seq21 (LNCOV-13)/ADGN-106 nanoparticle complex (peptide)
peptide 1: GFQPTNGVKLWRALWRLWRSLWRLLWK
peptide 2: LWRALWRLWRSLWRLLWK
modifications: not checked
**Q.** B5 was tested. Which IC50 [7] did it give?
**A.** Its IC50 is 5.2 nM and 11.2 nM.

B6: Seq32 (LNCOV-21)/ADGN-106 nanoparticle complex (protein)
peptide 1: IEEQAKTFLDKFNHEAEDLFYQSLWRALWRLWRSLWRLLWK
peptide 2: LWRALWRLWRSLWRLLWK
modifications: not checked
**Q.** For B6, which IC50 [10] is on record?
**A.** The IC50 was 24.5 nM and 7.2 nM.

B7: Seq35 (LNCOV-26)/ADGN-106 nanoparticle complex (protein)
peptide 1: KTFLDKFNHEAEDLFYSLWRALWRLWRSLWRLLWK
peptide 2: LWRALWRLWRSLWRLLWK
modifications: not checked
**Q.** For B7, which IC50 [10] is on record?
**A.** The IC50 was 217 nM and 55.4 nM.

B8: Seq38 (LNCOV-30)/ADGN-106 nanoparticle complex (protein)
peptide 1: NMTQGFWENPGGPTAWDLGKLWRALWRLWRSLWRLLWK
peptide 2: LWRALWRLWRSLWRLLWK
modifications: not checked
**Q.** With B8 as the binder, how does the IC50 [10] read?
**A.** The IC50 was 91.4 nM and 49.7 nM.

**Q.** How did the IC50 [11] turn out when EQAKTFLDKFNHEAEDLF (modifications not checked) [Seq24 (LNCOV-19)] was run?
**A.** The IC50 was 570000 nM.

**Q.** What about the IC50 [3] of the same binder?
**A.** The IC50 was 570 nM.

**Q.** What about the IC50 [4] of the same binder?
**A.** The IC50 was 1300 nM.

**Q.** With KTFLDKFNHEAEDLF (modifications not checked) [Seq25 (LNCOV-33)] as the binder, how does the IC50 [1] read?
**A.** Its IC50 is 1900 nM.

**Q.** And the IC50 [4]?
**A.** The IC50 was 2500 nM.

**Q.** How did the IC50 [1] turn out when KTFLDKFNHEAEDLFYS (modifications not checked) [Seq26 (LNCOV-34)] was run?
**A.** Its IC50 is 2100 nM.

**Q.** And the IC50 [4]?
**A.** The IC50 was 1900 nM.

**Q.** Which IC50 [1] does the source give for TAWDLGKGDFRI (modifications not checked) [Seq29 (LNCOV-35)] here?
**A.** The IC50 was over 10000 nM.

**Q.** What about the IC50 [4] of the same binder?
**A.** The IC50 was over 10000 nM.

**Q.** How did the IC50 [1] turn out when NMTQGFWENSMLTD (modifications not checked) [Seq30 (LNCOV-36)] was run?
**A.** Its IC50 is over 10000 nM.

**Q.** And the IC50 [4]?
**A.** The IC50 was over 10000 nM.

**Q.** Which results are given for KTFLDKFNHEAEDLFLWRALWRLWRSLWRLLWK (modifications not checked) [Seq34 (LNCOV-25)]?
**A.** IC50 [1]: > 1000 nM; IC50 [4]: > 1000 nM

**Q.** How did the IC50 [1] turn out when KTFLDKFNHEAEDLFYSLWRALWRLWRSLWRLLWK (modifications not checked) [Seq35 (LNCOV-26)] was run?
**A.** The IC50 was 728 nM.

**Q.** What about the IC50 [4] of the same binder?
**A.** The IC50 was 546 nM.

**Q.** With TAWDLGKGDFRILWRALWRLWRSLWRLLWK (modifications not checked) [Seq36 (LNCOV-28)] as the binder, how does the IC50 [1] read?
**A.** Its IC50 is over 1000 nM.

**Q.** What about the IC50 [4] of the same binder?
**A.** The IC50 was over 1000 nM.

**Q.** NMTQGFWENSMLTDLWRALWRLWRSLWRLLWK (modifications not checked) [Seq37 (LNCOV-29)] was tested. Which IC50 [1] did it give?
**A.** Its IC50 is 645 nM.

**Q.** And the IC50 [4]?
**A.** Its IC50 is over 1000 nM.
